Source: patent US20170241986A1, “METHODS FOR IDENTIFYING COMPOUNDS THAT ALTER THE ACTIVITY OF IRHOM POLYPEPTIDES AND USE THEREOF” (The Jackson Laboratory, priority 2014, published 2017)

Columns and labels:
[1] = test system: AREG; test: Immunoblot of intracellular pro-AREG in co-transfected cells; type: cell-based, human; details: co-expression with AREG, DMSO or 10 μM MM
Description: SDS-PAGE and Immunoblotting: Cells were washed once with ice cold PBS and incubated with RIPA buffer (Cell Signaling, Danvers, Mass.) containing complete mini protease inhibitors (Roche Applied Science, Indianapolis, Ind.) on ice for 10 min. Cell lysate was centrifuged at 14,000 g for 10 min at 4° C. Supernatant was collected and stored at −80° C. until further use. Total amount of protein was quantified using a Qubit Fluorometer (Life technologies), and 10 μg of protein was loaded onto 4-12% pre-cast gels (Lonza, Allendale, N.J.) and run at 140V until the low molecular weight Precision plus protein standard (Bio-Rad) reached the bottom of the gel. Resolved proteins were electrophoretically transferred onto PVDF membranes using an iBLOT (Life technologies) before blocking in 5% BSA (Cell Signaling Technology) in TBST (20 mM Tris, 137 mM sodium chloride, and 0.1% Tween-20) for 1 h at room temperature. Membranes were then incubated overnight at 4° C. in primary antibodies (1:1000) followed by three 15 min washes in TBST and incubation in secondary antibodies (1:2000) for 1 h at room temperature. After another wash in TBST for 90 min, membranes were exposed to SuperSignal West Femto Substrate (Fisher Scientific) for 5 min for detection of horseradish peroxidase generated signal. Membranes were re-probed with actin-specific antibody. […]

[2] = test system: AREG; test: ELISA of AREG in conditioned medium of transfected 293T cells (in vitro cleavage assay); type: cell-based, human
Excerpt: To test whether Rhbdf2^cub, with its short N-terminal domain, could induce secretion of AREG independently of metalloprotease activity, we performed in vitro cleavage assays in the presence or absence of marimastat (MM), a potent broad-spectrum metalloprotease inhibitor that can block both ADAM17- and ADAM10-dependent shedding of substrates. Because of the significant homology between the mouse and human RHBDF2 genes we transfected 293T cells with human AREG either alone or with the human wildtype (HuWt) or human Cub (HuCub) RHBDF2 genes (FIG. 5A), and measured AREG levels in conditioned medium. In the absence of MM, we observed no difference in AREG levels between AREG-expressing and AREG/HuCub co-expressing cells, whereas co-expression of HuWt and AREG reduced AREG levels by ˜60% (FIG. 5B).
(§1) Human AREG, HB-EGF and EGF ELISA: Transient transfections were performed in 293T cells seeded in 24-well plates. Using lipofectamine LTX with Plus reagent 16.5 fmol of HuWt or HuCub was co-transfected with 25 ng of AREG or 50 ng of HB-EGF or 200 ng of EGF. The total amount of transfected DNA was made up to equal amount per well with pCMV6-AC-HA vector. After 24 h, DMSO or 10 μM MM in 1 ml of fresh medium replaced the old medium. After 24 h, 100 μl of supernatant was either undiluted (HB-EGF and EGF) or diluted five-fold (AREG) and subjected to ELISA as per the manufacturer's instructions (DY262, DY259, and DY236).

[3] = test system: AREG; test: Co-immunoprecipitation of iRhom2-AREG complex; type: binding, human; details: COS7 cell lysates, anti-Flag immunoprecipitation
Description: Immunoprecipitation: 293T and COS7 cell transfections were carried according to the manufacturer's instructions (Life technologies). Cells plated in 6 well plates were treated with 400 μls of Cell Lysis Buffer (Cell Signaling, Danvers, Mass.) containing complete mini protease inhibitors (Roche Applied Science, Indianapolis, Ind.), incubated on ice for 10 min and centrifuged at 14,000 g for 10 min in a cold room. Cell supernatant was incubated overnight with 20 μls of magnetic beads conjugated with Anti-DDK antibody (Origene) in a cold room on a rocking platform. Following overnight incubation, beads/slurry was washed with three times with TBS-T, and protein was collected using 2×SDS-PAGE loading buffer.

[4] = molecular target: T1, HA-tagged human AREG (amphiregulin) (human) (UniProt P15514); test: cell-based or functional assay
T1 sequence (looked up): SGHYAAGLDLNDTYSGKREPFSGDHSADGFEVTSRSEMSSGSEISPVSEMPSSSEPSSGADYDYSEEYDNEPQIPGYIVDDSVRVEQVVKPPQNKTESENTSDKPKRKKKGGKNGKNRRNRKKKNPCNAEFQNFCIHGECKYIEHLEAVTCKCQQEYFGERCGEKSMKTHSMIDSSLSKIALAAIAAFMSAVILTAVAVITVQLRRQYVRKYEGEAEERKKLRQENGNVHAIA

[5] = test system: HB-EGF; test: ELISA of HB-EGF in conditioned medium of transfected 293T cells; type: cell-based, human; details: 10 μM marimastat
Description: as §1

[6] = test system: EGF; test: ELISA of EGF in conditioned medium of transfected 293T cells; type: cell-based, human; details: 10 μM marimastat
Description: as §1

[7] = co-expression with AREG, 10 μM marimastat

B1: p.I186T: HuWt clone containing the human tylosis missense mutation RHBDF2 p.I186T (protein)
chain: MASADKNGGSVSSVSSSRLQSRKPPNLSITIPPPEKETQAPGEQDSMLPEGFQNRRLKKSQPRTWAAHTTACPPSFLPKRKNPAYLKSVSLQEPRSRWQESSEKRPGFRRQASLSQSIRKGAAQWFGVSGDWEGQRQQWQRRSLHHCSMRYGRLKASCQRDLELPSQEAPSFQGTESPKPCKMPKTVDPLARGRAFRHPEEMDRPHAPHPPLTPGVLSLTSFTSVRSGYSHLPRRKRMSVAHMSLQAAAALLKGRSVLDATGQRCRVVKRSFAFPSFLEEDVVDGADTFDSSFFSKEEMSSMPDDVFESPPLSASYFRGIPHSASPVSPDGVQIPLKEYGRAPVPGPRRGKRIASKVKHFAFDRKKRHYGLGVVGNWLNRSYRRSISSTVQRQLESFDSHRPYFTYWLTFVHVIITLLVICTYGIAPVGFAQHVTTQLVLRNKGVYESVKYIQQENFWVGPSSIDLIHLGAKFSPCIRKDGQIEQLVLRERDLERDSGCCVQNDHSGCIQTQRKDCSETLATFVKWQDDTGPPMDKSDLGQKRTSGAVCHQDPRTCEEPASSGAHIWPDDITKWPICTEQARSNHTGFLHMDCEIKGRPCCIGTKGSCEITTREYCEFMHGYFHEEATLCSQVHCLDKVCGLLPFLNPEVPDQFYRLWLSLFLHAGVVHCLVSVVFQMTILRDLEKLAGWHRIAIIFILSGITGNLASAIFLPYRAEVGPAGSQFGLLACLFVELFQSWPLLERPWKAFLNLSAIVLFLFICGLLPWIDNIAHIFGFLSGLLLAFAFLPYITFGTSDKYRKRALILVSLLAFAGLFAALVLWLYIYPINWPWIEHLTCFPFTSRFCEKYELDQVLH
modifications: left off: small tags and cut ends
[1]
  intracellular levels of AREG compared with HuWt: lower intracellular levels
[2]; [7]
  levels of AREG in conditioned medium compared with HuWt: greater levels of AREG in conditioned medium
[3]
  physical complex with AREG: forms physical complexes with AREG

B2: Flag-tagged HuCub (human version of cub cDNA; N-terminal-truncated human iRhom2) (enzyme, not shown: small tags and cut ends)
chain: MSSMPDDVFESPPLSASYFRGIPHSASPVSPDGVQIPLKEYGRAPVPGPRRGKRIASKVKHFAFDRKKRHYGLGVVGNWLNRSYRRSISSTVQRQLESFDSHRPYFTYWLTFVHVIITLLVICTYGIAPVGFAQHVTTQLVLRNKGVYESVKYIQQENFWVGPSSIDLIHLGAKFSPCIRKDGQIEQLVLRERDLERDSGCCVQNDHSGCIQTQRKDCSETLATFVKWQDDTGPPMDKSDLGQKRTSGAVCHQDPRTCEEPASSGAHIWPDDITKWPICTEQARSNHTGFLHMDCEIKGRPCCIGTKGSCEITTREYCEFMHGYFHEEATLCSQVHCLDKVCGLLPFLNPEVPDQFYRLWLSLFLHAGVVHCLVSVVFQMTILRDLEKLAGWHRIAIIFILSGITGNLASAIFLPYRAEVGPAGSQFGLLACLFVELFQSWPLLERPWKAFLNLSAIVLFLFICGLLPWIDNIAHIFGFLSGLLLAFAFLPYITFGTSDKYRKRALILVSLLAFAGLFAALVLWLYIYPINWPWIEHLTCFPFTSRFCEKYELDQVLH
[4]
  AREG levels after co-transfection: 2 to 3 fold
  AREG levels in conditioned medium (ELISA) of co-transfected 293T cells in the presence of marimastat: 2 fold

B3: HuCub: human RHBDF2 construct mimicking the mutant Rhbdf2cub transcript; N-terminal-truncated iRhom2 (protein)
chain: MSSMPDDVFESPPLSASYFRGIPHSASPVSPDGVQIPLKEYGRAPVPGPRRGKRIASKVKHFAFDRKKRHYGLGVVGNWLNRSYRRSISSTVQRQLESFDSHRPYFTYWLTFVHVIITLLVICTYGIAPVGFAQHVTTQLVLRNKGVYESVKYIQQENFWVGPSSIDLIHLGAKFSPCIRKDGQIEQLVLRERDLERDSGCCVQNDHSGCIQTQRKDCSETLATFVKWQDDTGPPMDKSDLGQKRTSGAVCHQDPRTCEEPASSGAHIWPDDITKWPICTEQARSNHTGFLHMDCEIKGRPCCIGTKGSCEITTREYCEFMHGYFHEEATLCSQVHCLDKVCGLLPFLNPEVPDQFYRLWLSLFLHAGVVHCLVSVVFQMTILRDLEKLAGWHRIAIIFILSGITGNLASAIFLPYRAEVGPAGSQFGLLACLFVELFQSWPLLERPWKAFLNLSAIVLFLFICGLLPWIDNIAHIFGFLSGLLLAFAFLPYITFGTSDKYRKRALILVSLLAFAGLFAALVLWLYIYPINWPWIEHLTCFPFTSRFCEKYELDQVLH
modifications: left off: small tags and cut ends
notes: human RHBDF2 construct mimicking the mutant Rhbdf2cub transcript; N-terminal-truncated iRhom2
[1]
  intracellular levels of AREG compared with HuWt: lower intracellular levels
[5]
  secretion of HB-EGF compared with empty vector transfected controls: selectively increased secretion of AREG and HB-EGF
[2]; 293T cells, 10 μM marimastat
  secretion of AREG compared with empty vector transfected controls: selectively increased secretion of AREG
[2]; 293T cells, co-expression with AREG, absence of MM
  AREG levels versus AREG-expressing cells: no difference
[2]; [7]
  levels of AREG in conditioned medium compared with HuWt: greater levels of AREG in conditioned medium
[6]
  secretion of EGF compared with empty vector transfected controls: not EGF
[3]
  physical complex with AREG: forms physical complexes with AREG
